Data taken from patent US20170342160A1 (CHIOME BIOSCIENCE, published 2017).

T1: recombinant extracellular domain of human 5T4 (soluble, produced in house) (human, UniProt Q13641 32-355)
T1 construct: extracellular domain; The signal peptide lies within residues 1-355 and is not part of the secreted protein; also called 5T4-ECD; 5T4 recombinant protein
T1 sequence: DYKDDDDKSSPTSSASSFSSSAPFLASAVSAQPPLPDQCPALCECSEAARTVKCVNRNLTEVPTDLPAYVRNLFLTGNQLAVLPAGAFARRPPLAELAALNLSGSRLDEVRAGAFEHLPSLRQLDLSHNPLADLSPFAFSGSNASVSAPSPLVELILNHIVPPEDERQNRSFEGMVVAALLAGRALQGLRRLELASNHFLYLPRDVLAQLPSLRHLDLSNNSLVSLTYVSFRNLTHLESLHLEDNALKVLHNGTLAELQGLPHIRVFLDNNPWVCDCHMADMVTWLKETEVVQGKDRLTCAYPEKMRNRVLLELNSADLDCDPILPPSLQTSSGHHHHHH

T2: human 5T4 on 5T4-positive tumour cells (MSTO-211H mesothelioma cell line and other tumour cell lines) (human, UniProt Q13641 32-420)
T2 sequence (looked up): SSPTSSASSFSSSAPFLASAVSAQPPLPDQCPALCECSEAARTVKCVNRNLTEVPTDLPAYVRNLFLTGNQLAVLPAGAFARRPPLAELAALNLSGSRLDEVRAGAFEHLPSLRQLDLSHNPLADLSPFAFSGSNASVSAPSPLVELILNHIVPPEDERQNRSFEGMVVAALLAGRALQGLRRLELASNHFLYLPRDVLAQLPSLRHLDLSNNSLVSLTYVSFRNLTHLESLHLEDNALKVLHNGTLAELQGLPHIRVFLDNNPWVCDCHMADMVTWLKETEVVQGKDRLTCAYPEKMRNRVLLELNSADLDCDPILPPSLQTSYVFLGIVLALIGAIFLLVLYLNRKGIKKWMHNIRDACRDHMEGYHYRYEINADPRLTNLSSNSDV


Assays:
[1] = biological target: T1, recombinant extracellular domain of …; assay: ELISA on coated 5T4-ECD
Protocol: (§1) For Affinity to 5T4 target antigen an ELISA with the 5T4 antigen is used. Target antigen, 5T4 extra cellular domain, produced in house is coated to polystyrene flat bottom 96 well microplate and blocked. Tribody/sample dilutions were prepared in TBS with 0.2% w/v powdered milk, added to the plate and incubated. Following wash steps, detection antibody is added to the samples (anti-human Kappa light chain AP; e.g. Sigma, Cat. No. K4377). Bound detection antibody is measured by development of a colorimetric reaction upon addition of p-NPP (Cat-No: N7653, Sigma) and the absorbance quantified on a micro-well plate reader and processed by non-linear regression using graph Pad Prism software.

[2] = biological target: T2, human 5T4 on 5T4-positive tumour cells …; assay: cell-based or functional assay
[3] = biological target: T2, human 5T4 on 5T4-positive tumour cells …; assay: FACS titration on MSTO-211H cells
Protocol: (§2) To access the binding of anti-5T4 molecules (scFv, Fab and Tribody format) to the human 5T4 domain, the biphasic mesothelioma cell line MSTO-211H (ATCC CRL-2081) was tested by FACS binding assay with direct labelled molecules with Allophycocyanin (APC) by the Lightning-Link® APC kit from Innova Biosciences, following the manufacturer instructions.
(§3) Cells are then washed twice with PBS and binding to cell surface is accessed by flow cytometry using a BD FACsalibur apparatus.

[4] = biological target: T1, recombinant extracellular domain of …; assay: ELISA on 5T4 protein (extracellular domain)
Protocol: as §1

[5] = biological target: T1, recombinant extracellular domain of …; assay: ELISA on recombinant 5T4 extracellular domain
Protocol: as §1

[6] = biological target: T3, human CD3 (CD3 receptor complex on T cells) on Jurkat cells and on human PBMC (human, UniProt P07766 23-207); assay: cell binding titration (Abs 405nm) on human PBMC, donor PBMC#2053
T3 construct: whole, on cells; The other chains of the complex are not specified; also called human CD3 domain; CD3 epsilon
T3 sequence (P07766 23-207, one chain of several): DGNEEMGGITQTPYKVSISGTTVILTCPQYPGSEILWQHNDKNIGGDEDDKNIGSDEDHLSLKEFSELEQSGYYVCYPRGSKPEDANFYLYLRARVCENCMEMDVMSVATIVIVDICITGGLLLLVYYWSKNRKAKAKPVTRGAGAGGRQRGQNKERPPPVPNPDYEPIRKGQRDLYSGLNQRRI

[7] = biological target: T3, human CD3 (CD3 receptor complex on T …); assay: cell binding titration (Abs 405nm) on human PBMC, donor PBMC#5886
[8] = biological target: T3, human CD3 (CD3 receptor complex on T …); assay: row 'CD3 binding (KD)'; cellular ELISA on Jurkat T-cells (panel B)
Protocol: For Affinity to the human CD3 domain, a cell based ELISA with a T-cell lymphoma (CD3+) cell line, Jurkat, was used. Jurkat cells are collected, washed and aliquoted into each well of a round-bottom 96 well microplate. Tribody/sample dilutions were prepared in PBS, added to the cells and incubated. Following wash steps, detection antibody is added to the samples (anti-human Kappa light chain AP; e.g. Sigma, Cat. No. K4377). Bound detection antibody is measured by development of a colorimetric reaction upon addition of p-NPP (Cat-No: N7653, Sigma) and the absorbance quantified on a micro-well plate reader and processed by non-linear regression using graph Pad Prism software.

[9] = biological target: T1, recombinant extracellular domain of …; assay: row '5T4-binding (KD)'; ELISA on 5T4 extracellular domain (panel A)
Protocol: as §1

[10] = biological target: T3, human CD3 (CD3 receptor complex on T …); assay: cell binding titration (Abs 405nm) on human PBMC, donor printed as PBMC49966
[11] = biological target: T2, human 5T4 on 5T4-positive tumour cells …; assay: FACS titration on MSTO-211H cells (row 'FACS' of the inset table 'Method / KD Tb535H (nM)')
Protocol: as §2, §3

[12] = biological target: T3, human CD3 (CD3 receptor complex on T …); assay: flow cytometry titration on peripheral blood cells of 3 different donors; peripheral blood cells of 3 different donors; cell-binding titration, KD = 50% binding concentration

Binder	Kd [1]	EC50 of cytotoxicity (MSTO-211H target cells with human PBMC) [2]	EC50 (read off the curve) [4]	EC50 (read off the curve) [5]	Kd [8]	Kd [9]	further results
Tb535H, humanized 5T4xCD3 Tribody fusion protein (Fab(5T4) with C-terminal dsFv(CD3) and dsFv(5T4)) (bispecific antibody, also called Tb535H-1120; Tb-5T4) chain 1: QVQLVQSGAEVKKPGASVKVSCKASGYSFTSYYMHWVKQSPGQGLEWIGRINPNNGVTLYNQKFKDRVTMTRDTSISTAYMELSRLRSDDTAVYYCARSTMITNYVMDYWGQGTLVTVSSASTKGPSVFPLAPSSKSTSGGTAALGCLVKDYFPEPVTVSWNSGALTSGVHTFPAVLQSSGLYSLSSVVTVPSSSLGTQTYICNVNHKPSNTKVDKKVEPKSCDKTHTGPGGGSPGQVQLVQSGAELKKPGASVKVSCKASGYTFTRYTMHWVRQAPGQCLEWMGYINPSRGYTNYNQKFKDKATLTADKSTSTAYMELRSLRSDDTAVYYCARYYDDHYSLDYWGQGTLVTVSSASGGGGSGGGGSGGGGSAGDIQLTQSPSILSASVGDRVTITCRASSSVSYMNWYQQKPGKAPKRWIYDTSKVASGVPYRFSGSGSGTEYTLTISSMQPEDFATYYCQQWSSNPLTFGCGTKVEIKSG chain 2: not shown	0.9 nM	0.007 nM	~1 nM	~1 nM	23 nM	1.1 nM	EC50 (read off the curve) [3]: ~5 nM; Kd [6]: 26 nM; Kd [7]: 24 nM; Kd [10]: 26 nM; Kd [11]: 4.6 nM; Kd [12]: ~25 nM
Tb535C, chimeric 5T4xCD3 Tribody fusion protein based on murine 5T4 binders (bispecific antibody, Heterodimer through CH1:CL; also called Tribody based on the murine variable domains) chain 1: EVQLQQSGPDLVKPGASVKISCKASGYSFTGYYMHWVKQSPGKGLEWIGRINPNNGVTLYNQKFKDKATLTVDKSSTTAYMELRSLTSEDSAVYYCARSTMITNYVMDYWGQGTSVTVSSASTKGPSVFPLAPSSKSTSGGTAALGCLVKDYFPEPVTVSWNSGALTSGVHTFPAVLQSSGLYSLSSVVTVPSSSLGTQTYICNVNHKPSNTKVDKKVEPKSCDKTHTGPGGGSPGQVQLVQSGAELKKPGASVKVSCKASGYTFTRYTMHWVRQAPGQCLEWMGYINPSRGYTNYNQKFKDKATLTADKSTSTAYMELRSLRSDDTAVYYCARYYDDHYSLDYWGQGTLVTVSSASGGGGSGGGGSGGGGSAGDIQLTQSPSILSASVGDRVTITCRASSSVSYMNWYQQKPGKAPKRWIYDTSKVASGVPYRFSGSGSGTEYTLTISSMQPEDFATYYCQQWSSNPLTFGCGTKVEIK chain 2: SIVMTQTPTSLLVSAGDRVTITCKASQSVSNDVAWYQQKPGQSPKLLISYTSSRYAGVPDRFSGSGYGTDFTLTISSVQAEDAAVYFCQQDYNSPPTFGGGTKLEIKRTVAAPSVFIFPPSDEQLKSGTASVVCLLNNFYPREAKVQWKVDNALQSGNSQESVTEQDSKDSTYSLSSTLTLSKADYEKHKVYACEVTHQGLSSPVTKSFNRGECGPGGGSPGEVQLVQSGPDDVKPGGSVKISCKASGYSFTGYYMHWVKQSPGKCLEWIGRINPNNGVTLYNQKFKDKATLTVDKSSTTAYMELRSLTSEDSAVYYCARSTMITNYVMDYWGQGTLVTVSSASGGGGSGGGGSGGGGSAGDIVMTQTPTSLLVSAGDRVTITCKASQSVSNDVAWYQQKPGQSPKLLISYTSSRYAGVPDRFSGSGYGTDFTLTISSVQAEDAAVYFCQQDYNSPPTFGCGTKLEIKSG	1 nM	0.01 nM	~0.7 nM		30 nM	0.8 nM	
Fab(5T4), humanized VH(5T4) SEQ ID 6 and VL(5T4) SEQ ID 19 in Fab format (Fab, V domains shown, Fab format) VH: QVQLVQSGAEVKKPGASVKVSCKASGYSFTSYYMHWVKQSPGQGLEWIGRINPNNGVTLYNQKFKDRVTMTRDTSISTAYMELSRLRSDDTAVYYCARSTMITNYVMDYWGQGTLVTVSS VL: DIVMTQSPDSLAVSLGERATINCKASQSVSNDVAWYQQKPGQPPKLLIYYTSSRYAGVPDRFSGSGSGTDFTLTISSLQAEDVAVYYCQQDYNSPPTFGGGTKLEIK	2.9 nM			~2 nM			
BiTE format, scFv(5T4)-scFv(CD3) fusion with humanized VH(5T4) SEQ ID 6 and VL(5T4) SEQ ID 19 (bispecific antibody, V domains shown, The molecule is a single polypeptide, scFv(5T4)-scFv(CD3); also called scFv-scFv format) VH: QVQLVQSGAEVKKPGASVKVSCKASGYSFTSYYMHWVKQSPGQGLEWIGRINPNNGVTLYNQKFKDRVTMTRDTSISTAYMELSRLRSDDTAVYYCARSTMITNYVMDYWGQGTLVTVSS VL: DIVMTQSPDSLAVSLGERATINCKASQSVSNDVAWYQQKPGQPPKLLIYYTSSRYAGVPDRFSGSGSGTDFTLTISSLQAEDVAVYYCQQDYNSPPTFGGGTKLEIK	2 nM						
IgG(5T4), humanized VH(5T4) SEQ ID 6 and VL(5T4) SEQ ID 19 in IgG format (antibody, V domains shown, also called IgG1(5T4)) VH: QVQLVQSGAEVKKPGASVKVSCKASGYSFTSYYMHWVKQSPGQGLEWIGRINPNNGVTLYNQKFKDRVTMTRDTSISTAYMELSRLRSDDTAVYYCARSTMITNYVMDYWGQGTLVTVSS VL: DIVMTQSPDSLAVSLGERATINCKASQSVSNDVAWYQQKPGQPPKLLIYYTSSRYAGVPDRFSGSGSGTDFTLTISSLQAEDVAVYYCQQDYNSPPTFGGGTKLEIK	0.7 nM						
dsFv(5T4), humanized VH(5T4) SEQ ID 6 and VL(5T4) SEQ ID 19 in dsFv format (scFv, also called dsFvhu5T4; scFv) scFv: QVQLVQSGAEVKKPGASVKVSCKASGYSFTSYYMHWVKQSPGQCLEWIGRINPNNGVTLYNQKFKDRVTMTRDTSISTAYMELSRLRSDDTAVYYCARSTMITNYVMDYWGQGTLVTVSSASGGGGSGGGGSGGGGSAGDIVMTQSPDSLAVSLGERATINCKASQSVSNDVAWYQQKPGQPPKLLIYYTSSRYAGVPDRFSGSGSGTDFTLTISSLQAEDVAVYYCQQDYNSPPTFGCGTKLEIK	2.3 nM			~1 nM			
